Positions count from the first letter of the chain named.
B1: SRP2188-A02 (antibody, IgG1, V domains shown)
VH: EVQLVESGGGLVQPGGSLRLSCAASGFNIKSYDIHWVRQAPGKGLEWVGWINPEDGDTYYADSVKGRFTISADTSKNTAYLQMNSLRAEDTAVYYCARDFGVFDYWGQGTLVTVSS
VL: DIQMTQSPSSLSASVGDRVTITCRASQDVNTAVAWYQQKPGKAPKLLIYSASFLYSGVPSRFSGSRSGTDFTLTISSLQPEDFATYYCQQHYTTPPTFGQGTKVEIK
notes: IgG1 with trastuzumab LC; HIS- and FLAG-tagged; cell-free expressed
B2: SRP2188-A11 (antibody, IgG1, V domains shown)
VH: EVQLVESGGGLVQPGGSLRLSCAASGFNISDYDIHWVRQAPGKGLEWVSLIDPKDGATDSADSVKGRFTISADTSKNTAYLQMNSLRAGDTAVYYCARDYGVFDYWGQGTLVTVSS
VL: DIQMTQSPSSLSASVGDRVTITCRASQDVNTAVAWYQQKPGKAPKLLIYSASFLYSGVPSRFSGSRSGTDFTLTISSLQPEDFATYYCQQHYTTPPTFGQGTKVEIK
notes: as for B1
B3: SRP2188-C05 (antibody, IgG1, V domains shown)
VH: B2 VH with S30N, D31S, Y32F, S49G, L50G, K54R, A57S, G89E
VL: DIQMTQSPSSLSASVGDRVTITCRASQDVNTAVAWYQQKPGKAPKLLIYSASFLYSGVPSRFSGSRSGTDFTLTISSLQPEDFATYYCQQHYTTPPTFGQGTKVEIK
notes: as for B1
B4: SRP2188-D05 (antibody, IgG1, V domains shown)
VH: B2 VH with D31E, S49G, L50G, K54H, A57W, S60H, G89E, F103Y
VL: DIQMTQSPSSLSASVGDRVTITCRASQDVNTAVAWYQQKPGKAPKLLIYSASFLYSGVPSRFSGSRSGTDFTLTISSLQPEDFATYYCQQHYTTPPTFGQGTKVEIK
notes: as for B1
B5: SRP2188-B10 (antibody, IgG1, V domains shown)
VH: B1 VH with K30N, E54H, Y60H, F100Y
VL: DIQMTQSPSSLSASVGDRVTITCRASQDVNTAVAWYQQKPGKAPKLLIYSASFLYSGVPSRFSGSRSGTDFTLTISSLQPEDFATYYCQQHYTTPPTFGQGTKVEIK
notes: as for B1
B6: SRP2188-B08 (antibody, IgG1, V domains shown)
VH: B1 VH with K30D, E54D, Y59F, N84D, F100Y
VL: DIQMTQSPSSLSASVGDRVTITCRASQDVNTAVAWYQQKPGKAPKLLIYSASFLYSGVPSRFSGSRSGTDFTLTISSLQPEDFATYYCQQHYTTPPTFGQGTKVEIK
notes: as for B1
B7: SRP2188-F09 (antibody, IgG1, V domains shown)
VH: B2 VH with G10D, S30R, L50A, K54N, A57S, S60Y, G89E
VL: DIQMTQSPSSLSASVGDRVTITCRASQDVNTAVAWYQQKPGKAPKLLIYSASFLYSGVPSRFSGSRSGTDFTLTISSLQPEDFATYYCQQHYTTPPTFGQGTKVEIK
notes: as for B1
B8: SRP2188-F10 (antibody, IgG1, V domains shown)
VH: B2 VH with D31V, Y32F, S49G, L50G, K54N, S60H, G89E
VL: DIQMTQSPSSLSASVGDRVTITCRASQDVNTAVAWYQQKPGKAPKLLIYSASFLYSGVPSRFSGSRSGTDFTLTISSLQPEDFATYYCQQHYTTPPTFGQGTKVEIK
notes: as for B1
B9: SRP2188-D08 (antibody, IgG1, V domains shown)
VH: B2 VH with S30R, S49V, L50G, K54D, S60E, G89E
VL: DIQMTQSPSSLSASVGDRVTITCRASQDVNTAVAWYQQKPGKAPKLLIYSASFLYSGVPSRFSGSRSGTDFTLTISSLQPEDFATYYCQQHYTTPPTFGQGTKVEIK
notes: as for B1
B10: SRP2188-D07 (antibody, IgG1, V domains shown)
VH: B2 VH with Y32F, S49V, L50G, K54T, S60Y, G89E
VL: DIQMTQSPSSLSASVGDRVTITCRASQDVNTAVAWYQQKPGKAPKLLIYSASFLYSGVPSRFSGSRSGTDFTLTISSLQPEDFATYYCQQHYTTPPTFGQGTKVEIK
notes: as for B1
B11: SRP2188-D11 (antibody, IgG1, V domains shown)
VH: B2 VH with P14T, S30R, S49G, K54D, A57S, S60E, G89E
VL: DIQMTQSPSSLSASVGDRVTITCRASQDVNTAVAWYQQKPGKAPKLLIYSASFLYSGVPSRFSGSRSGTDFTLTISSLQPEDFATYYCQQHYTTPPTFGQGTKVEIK
notes: as for B1
B12: SRP2188-E02 (antibody, IgG1, V domains shown)
VH: B1 VH with K30P, S31D, D33E, W50G, N52E, E54H, D57S, Y59D, F100Y, F103Y
VL: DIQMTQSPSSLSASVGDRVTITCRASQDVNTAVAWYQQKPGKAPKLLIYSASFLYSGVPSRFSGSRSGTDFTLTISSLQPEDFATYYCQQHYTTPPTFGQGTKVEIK
notes: as for B1
B13: SRP2188-F04 (antibody, IgG1, V domains shown)
VH: B2 VH with G10S, Y32F, L50G, K54D, S60Y, G89E
VL: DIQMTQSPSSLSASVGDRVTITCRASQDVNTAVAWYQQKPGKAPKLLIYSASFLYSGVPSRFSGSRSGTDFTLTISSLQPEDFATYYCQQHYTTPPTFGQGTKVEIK
notes: as for B1
B14: SRP2188-A10 (antibody, IgG1, V domains shown)
VH: B1 VH with K30N, Y59S, Y60H, F100Y
VL: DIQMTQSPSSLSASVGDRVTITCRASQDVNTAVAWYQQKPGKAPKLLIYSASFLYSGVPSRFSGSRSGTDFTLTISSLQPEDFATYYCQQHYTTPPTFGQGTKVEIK
notes: as for B1
B15: SRP2188-E06 (antibody, IgG1, V domains shown)
VH: B2 VH with S30G, S49G, L50G, K54E, S60I, N84D, G89E
VL: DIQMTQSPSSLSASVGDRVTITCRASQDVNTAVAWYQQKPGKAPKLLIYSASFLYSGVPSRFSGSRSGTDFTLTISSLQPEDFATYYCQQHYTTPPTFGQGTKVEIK
notes: as for B1
B16: SRP2188-D02 (antibody, IgG1, V domains shown)
VH: B2 VH with S49G, L50G, K54E, S60Y, G89E
VL: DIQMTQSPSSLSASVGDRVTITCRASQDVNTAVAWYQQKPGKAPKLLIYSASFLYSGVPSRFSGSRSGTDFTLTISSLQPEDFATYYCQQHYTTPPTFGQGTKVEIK
notes: as for B1
B17: SRP2188-G04 (antibody, IgG1, V domains shown)
VH: B2 VH with S30F, S49G, L50G, K54R, A57S, S60H, G89E, F103Y
VL: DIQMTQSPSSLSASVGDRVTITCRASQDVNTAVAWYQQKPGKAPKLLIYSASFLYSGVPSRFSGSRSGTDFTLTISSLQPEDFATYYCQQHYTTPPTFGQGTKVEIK
notes: as for B1
B18: SRP2188-B06 (antibody, IgG1, V domains shown)
VH: B1 VH with K30H, K43E, E54D, Y60H, F100Y
VL: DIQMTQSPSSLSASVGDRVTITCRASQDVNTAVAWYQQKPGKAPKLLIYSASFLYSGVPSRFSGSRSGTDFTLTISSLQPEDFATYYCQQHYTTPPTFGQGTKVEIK
notes: as for B1
B19: SRP2188-E10 (antibody, IgG1, V domains shown)
VH: B2 VH with S30G, Y32F, S49G, L50G, K54R, S60Y, G89E
VL: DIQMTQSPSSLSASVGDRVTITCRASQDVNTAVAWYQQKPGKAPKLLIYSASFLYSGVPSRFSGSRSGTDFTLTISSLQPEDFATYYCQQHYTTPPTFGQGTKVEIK
notes: as for B1
B20: SRP2188-B01 (antibody, IgG1, V domains shown)
VH: B1 VH with K30N, Y32H, E54D, F100Y, F103L
VL: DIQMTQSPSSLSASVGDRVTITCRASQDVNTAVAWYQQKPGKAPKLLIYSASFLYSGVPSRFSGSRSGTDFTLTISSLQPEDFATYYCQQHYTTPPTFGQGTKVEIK
notes: as for B1
B21: SRP2188-B09 (antibody, IgG1, V domains shown)
VH: B2 VH with S30N, D31S, S49G, L50V, A57W, S60H, A88T, G89E
VL: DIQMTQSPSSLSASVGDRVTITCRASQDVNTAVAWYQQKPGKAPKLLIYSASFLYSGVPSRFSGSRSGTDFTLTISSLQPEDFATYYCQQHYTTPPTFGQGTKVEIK
notes: as for B1
B22: SRP2188-F05 (antibody, IgG1, V domains shown)
VH: B2 VH with S49G, L50G, K54R, G89E
VL: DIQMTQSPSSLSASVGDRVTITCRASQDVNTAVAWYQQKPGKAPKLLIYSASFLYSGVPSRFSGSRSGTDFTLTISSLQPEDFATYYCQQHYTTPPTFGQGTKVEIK
notes: as for B1
B23: SRP2188-C04 (antibody, IgG1, V domains shown)
VH: B1 VH with K30N, Y60H, K65R, F100Y, F103Y
VL: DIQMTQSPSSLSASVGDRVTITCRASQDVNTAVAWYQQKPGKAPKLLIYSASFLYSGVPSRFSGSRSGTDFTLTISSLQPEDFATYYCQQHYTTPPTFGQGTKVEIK
notes: as for B1
B24: SRP2188-D10 (antibody, IgG1, V domains shown)
VH: B2 VH with S49G, L50R, K54R, S60Y, G89E
VL: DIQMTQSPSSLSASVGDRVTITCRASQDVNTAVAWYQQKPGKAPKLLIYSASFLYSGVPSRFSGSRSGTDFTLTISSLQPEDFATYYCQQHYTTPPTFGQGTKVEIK
notes: as for B1
B25: SRP2188-E05 (antibody, IgG1, V domains shown)
VH: B2 VH with S49A, L50G, D52E, K54W, A57S, S60H, G89E
VL: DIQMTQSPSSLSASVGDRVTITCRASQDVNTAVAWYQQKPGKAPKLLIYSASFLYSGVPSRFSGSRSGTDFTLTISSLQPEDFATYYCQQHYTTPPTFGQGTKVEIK
notes: as for B1
B26: SRP2188-B04 (antibody, IgG1, V domains shown)
VH: B1 VH with K30T, S31W, E54D, F100Y
VL: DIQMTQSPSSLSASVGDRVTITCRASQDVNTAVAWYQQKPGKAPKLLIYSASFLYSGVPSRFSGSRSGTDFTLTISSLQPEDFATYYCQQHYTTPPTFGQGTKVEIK
notes: as for B1
B27: SRP2188-C02 (antibody, IgG1, V domains shown)
VH: B1 VH with K30E, S31R, E54D, M83T, N84K, F100Y
VL: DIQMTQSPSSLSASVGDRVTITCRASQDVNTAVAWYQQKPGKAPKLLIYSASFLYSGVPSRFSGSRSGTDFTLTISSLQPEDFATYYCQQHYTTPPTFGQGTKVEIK
notes: as for B1
B28: SRP2188-F01 (antibody, IgG1, V domains shown)
VH: B2 VH with S30R, D31Y, S49G, K54D, A57W, D59V, G89E
VL: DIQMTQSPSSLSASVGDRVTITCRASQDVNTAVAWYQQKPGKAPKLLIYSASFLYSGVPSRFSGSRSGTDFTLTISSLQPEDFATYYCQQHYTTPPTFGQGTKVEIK
notes: as for B1
B29: SRP2188-C03 (antibody, IgG1, V domains shown)
VH: B1 VH with K30N, E54D, F100Y
VL: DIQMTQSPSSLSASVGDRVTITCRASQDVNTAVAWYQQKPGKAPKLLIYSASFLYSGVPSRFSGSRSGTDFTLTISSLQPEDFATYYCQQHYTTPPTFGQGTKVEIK
notes: as for B1
B30: SRP2188-A08 (antibody, IgG1, V domains shown)
VH: B1 VH with K30H, S31N, Y32F, E54F, Q82R, V93A, F100Y
VL: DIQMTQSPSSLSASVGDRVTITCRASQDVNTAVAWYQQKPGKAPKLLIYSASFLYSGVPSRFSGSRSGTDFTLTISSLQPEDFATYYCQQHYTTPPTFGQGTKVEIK
notes: as for B1
B31: SRP2188-C11 (antibody, IgG1, V domains shown)
VH: B1 VH with E54D, Y60L, F100Y
VL: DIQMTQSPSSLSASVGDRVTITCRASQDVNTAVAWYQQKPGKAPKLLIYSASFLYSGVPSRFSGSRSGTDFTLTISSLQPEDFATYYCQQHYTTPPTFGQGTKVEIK
notes: as for B1
B32: SRP2188-F03 (antibody, IgG1, V domains shown)
VH: B2 VH with L50G, K54D, A57S, S60Y, G89E
VL: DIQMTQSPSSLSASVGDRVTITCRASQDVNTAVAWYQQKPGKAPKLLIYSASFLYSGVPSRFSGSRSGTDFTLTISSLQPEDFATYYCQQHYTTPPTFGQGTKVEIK
notes: as for B1

The binders below were run against T1, human ROR1 (hROR1) expressed on cells (human, UniProt Q01973 30-937) (assay: flow cytometry, HCT116-hROR1 cells).
T1 construct: Mino cells are the target positive cells of the killing assay; also called receptor tyrosine kinase like orphan receptor 1; HCT 116-hROR1

Binder | Bmax (MFI) | Kd [nM]
B1 | 9390 | 0.03
B2 | 8340 | 0.06
B3 | 9510 | 0.06
B4 | 9840 | 0.04
B5 | 9000 | 0.04
B6 | 9210 | 0.09
B7 | 8760 | 0.02
B8 | 8480 | 0.03
B9 | 9600 | 0.05
B10 | 8990 | 0.04
B11 | 9600 | 0.02
B12 | 10500 | 0.07
B13 | 10000 | 0.03
B14 | 9150 | 0.03
B15 | 9970 | 0.04
B16 | 10000 | 0.04

Binder | Bmax (MFI) | Kd [nM]
B17 | 8990 | 0.02
B18 | 9130 | 0.06
B19 | 9120 | 0.04
B20 | 9470 | 0.04
B21 | 9420 | 0.05
B22 | 9620 | 0.04
B23 | 9500 | 0.03
B24 | 9070 | 0.05
B25 | 10600 | 0.05
B26 | 9660 | 0.05
B27 | 9920 | 0.13
B28 | 8660 | 0.02
B29 | 9600 | 0.03
B30 | 8130 | 0.18
B31 | 9210 | 0.04
B32 | 10100 | 0.04

The binders below were run against T1, human ROR1 (hROR1) expressed on cells (assay: cell-based or functional assay).

Binder | Mino Nb-PBD, drug-conjugated 2° antibody Cell Killing IC50 [nM] | Mino Nb-PBD, drug-conjugated 2° antibody Cell Killing Span [%]
B1 | 0.0007 | 65
B6 | 0.0062 | 71
B7 | 0.0018 | 59
B10 | 0.0017 | 70
B12 | 0.00075 | 76
B13 | 0.00072 | 71
B16 | 0.0014 | 72
B19 | 0.00099 | 73
B20 | 0.00069 | 75
B24 | 0.001 | 65
B26 | 0.0012 | 73
B27 | 0.01 | 73
B29 | 0.0011 | 71
B30 | 0.02 | 75
B32 | 0.0011 | 71

These binders were tested against T2, human ROR1-ECD (human, UniProt Q01973 30-406) (assay: SPR (Biacore), antibody captured by anti-Fc, human ROR1-ECD analyte).
T2 construct: Bought protein; also called hROR1; ROR1-extracellular domain
Description: Anti-Fc polyclonal antibodies were immobilized onto a CMS chip (GE Life Sciences) using amine coupling chemistry (from Amine Coupling Kit, GE Life Sciences). The immobilization steps were carried out at a flow rate of 25 μL/min in 1×HBS-EP+buffer (GE Life Sciences; 10× Stock diluted before use). The sensor surfaces were activated for 7 min with a mixture of NHS (0.05 M) and EDC (0.2 M). The Anti-Fc antibodies were injected over all 4 flow cells at a concentration of 25 ug/ml in 10 mM sodium acetate, pH 4.5, for 7 min. Ethanolamine (1 M, pH 8.5) was injected for 7 min to block any remaining activated groups.
Off-rate and kinetic binding experiments were performed at 25° C. using 1×HBS-EP+buffer. Test and control antibodies were injected over the anti-Fc surface at concentrations of 5-10 μg/mL for 12 seconds at a flow rate of 10 μL/min on flow cells 2, 3 and 4, followed by a buffer wash for 30 seconds at the same flow rate. […] After capturing ligand (antibody) on the anti-Fc surface, the analyte (hROR1, Fz or Kr domains, Acro Biosystems, Delaware) was bound for 180 seconds, followed by a 600 second dissociation phase at a flow rate of 50 μL/min. Between each ligand capture and analyte binding cycle, regeneration was carried out using 2 injections of 10 mM Glycine pH 2.0 for 30 seconds at 30 μL/min, followed by a 30 second buffer wash step.

Binder | Kd [nM] | koff [s⁻¹] | kon [M⁻¹ s⁻¹]
B2 | 0.354 | 0.000379 | 1.07e+06
B3 | 0.427 | 0.000453 | 1.06e+06
B4 | 0.48 | 0.000359 | 747000
B5 | 0.462 | 0.000539 | 1.17e+06
B8 | 0.399 | 0.000399 | 1e+06
B9 | 0.381 | 0.000268 | 703000
B11 | 0.741 | 0.00055 | 743000
B14 | 0.426 | 0.000222 | 522000
B15 | 0.438 | 0.000346 | 790000
B17 | 0.406 | 0.000259 | 639000
B18 | 0.504 | 0.000467 | 927000
B21 | 0.657 | 0.000579 | 882000
B22 | 0.587 | 0.00051 | 870000
B23 | 0.139 | 0.000101 | 723000
B25 | 0.369 | 0.00031 | 840000
B28 | 0.546 | 0.000316 | 578000
B31 | 0.873 | 0.000617 | 707000

From patent US20240058465A1 (SUTRO BIOPHARMA, published 2024)
